The source of these data is US20060115477A1 (Bristol-Myers Squibb, published 2006).

The experiment deals with T1, neuropilin-1 (human, UniProt O14786 22-923).
T1 construct: whole, on cells; On intact cells in FACS and cell assays; pulled down from Triton X-100 lysate of HT1080 cells in the immunoprecipitation, identified as the full length form by MALDI peptide mass fingerprint; also called NP-1; VEGF165R
In words: competition FACS on HT1080 cells preincubated with VEGF165 (legend of FIG. 17). As to the method:
ScFv's were labeled with fluorescein isothiocyanate (Molecular Probes, # F-1906) according to the instructions of the manufacturer. HT1080 cells were preincubated with a control scFv, a NP-1-binding scFv's (e.g. scFv8, scFv13 or scFv22) (both at 25 μg/ml) or VEGF₁₆₅ (R&Dsystems, #293-VE/CF) ([…]) for 2 hours at 0° C. and the fluorescein labeled NP-1-binding scFv (5 μg/ml) was added for 30 min. at 0° C. Bound fluorescein labeled scFv were detected by flow cytometry and the geometric mean fluorescence intensity was recorded. In order to determine if NP-1-binding scFv has overlapping epitopes with VEGF and each other for binding to cell surface NP-1, a competition FACS with directly labeled scFv was performed. […] Furthermore, scFv8 and scFv24 have mutually overlapping epitopes whereas scFv13 has an epitope distinct from scFv8 and scFv24.

T1 sequence (O14786 22-923): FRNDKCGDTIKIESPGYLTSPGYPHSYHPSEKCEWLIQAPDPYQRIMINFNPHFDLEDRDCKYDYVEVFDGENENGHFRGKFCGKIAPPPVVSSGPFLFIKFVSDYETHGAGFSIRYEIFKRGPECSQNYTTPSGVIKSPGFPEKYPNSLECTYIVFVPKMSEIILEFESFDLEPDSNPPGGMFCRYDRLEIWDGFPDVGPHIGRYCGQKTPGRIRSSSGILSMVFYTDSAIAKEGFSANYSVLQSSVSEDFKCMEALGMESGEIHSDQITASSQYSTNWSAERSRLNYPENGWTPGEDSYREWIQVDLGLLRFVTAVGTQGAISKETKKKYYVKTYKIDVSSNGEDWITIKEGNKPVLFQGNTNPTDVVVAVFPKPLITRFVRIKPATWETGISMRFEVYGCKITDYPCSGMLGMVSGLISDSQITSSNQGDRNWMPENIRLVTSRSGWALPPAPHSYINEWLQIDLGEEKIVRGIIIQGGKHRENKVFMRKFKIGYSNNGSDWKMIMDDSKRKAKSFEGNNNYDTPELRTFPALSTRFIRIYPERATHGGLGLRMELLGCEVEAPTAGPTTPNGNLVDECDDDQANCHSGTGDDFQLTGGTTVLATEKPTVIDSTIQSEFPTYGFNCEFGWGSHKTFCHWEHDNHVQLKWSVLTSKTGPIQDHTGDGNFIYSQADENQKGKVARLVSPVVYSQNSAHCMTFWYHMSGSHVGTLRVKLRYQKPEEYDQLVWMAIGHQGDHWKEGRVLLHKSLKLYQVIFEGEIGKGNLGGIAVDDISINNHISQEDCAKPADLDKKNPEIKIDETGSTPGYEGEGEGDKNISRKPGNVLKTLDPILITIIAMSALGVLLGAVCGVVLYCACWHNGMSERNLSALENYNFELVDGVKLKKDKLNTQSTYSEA

B1: VEGF165 (R&Dsystems, #293-VE/CF) (ligand, human, UniProt P15692-4 27-191, looked up)
chain: APMAEGGGQNHHEVVKFMDVYQRSYCHPIETLVDIFQEYPDEIEYIFKPSCVPLMRCGGCCNDEGLECVPTEESNITMQIMRIKPHQGQHIGEMSFLQHNKCECRPKKDRARQENPCGPCSERRKHLFVQDPQTCKCSCKNTDSRCKARQLELNERTCRCDKPRR
notes: mature; also called recombinant human VEGF
On to B1, for which the binding result is reported as “binds”.
